From doi:10.1101/589515 (bioRxiv, 2019)

Target: the molecule itself
Test: cryo-EM structure

B1: human polycystin-2 (PC2), truncated construct Pro185 - Asp723 (domain or fragment, UniProt Q13563 185-723, looked up)
chain: PRVAWAERLVRGLRGLWGTRLMEESSTNREKYLKSVLRELVTYLLFLIVLCILTYGMMSSNVYYYTRMMSQLFLDTPVSKTEKTNFKTLSSMEDFWKFTEGSLLDGLYWKMQPSNQTEADNRSFIFYENLLLGVPRIRQLRVRNGSCSIPQDLRDEIKECYDVYSVSSEDRAPFGPRNGTAWIYTSEKDLNGSSHWGIIATYSGAGYYLDLSRTREETAAQVASLKKNVWLDRGTRATFIDFSVYNANINLFCVVRLLVEFPATGGVIPSWQFQPLKLIRYVTTFDFFLAACEIIFCFFIFYYVVEEILEIRIHKLHYFRSFWNCLDVVIVVLSVVAIGINIYRTSNVEVLLQFLEDQNTFPNFEHLAYWQIQFNNIAAVTVFFVWIKLFKFINFNRTMSQLSTTMSRCAKDLFGFAIMFFIIFLAYAQLAYLVFGTQVDDFSTFQECIFTQFRIILGDINFAEIEEANRVLGPIYFTTFVFFMFFILLNMFLAIINDTYSEVKSDLAQQKAEMELSDLIRKGYHKALVKLKLKKNTVD
- stoichiometry N: 4
